Reference: paper PMC8931250, “A SURF4-to-proteoglycan relay mechanism that mediates the sorting and secretion of a tagged variant of sonic hedgehog” (Proceedings of the National Academy of Sciences of the …, 2022)

B1: GST-SURF4^49-60 [human] / CW peptides (KRRHPKKC) [not stated (human or mouse cDNA cloned)] (parent complex)
chain 1: SEQRDYIDTTWN
chain 2: KRRHPKKC

Variants of: B1
Assay: peptide pull-down (peptides on thiopyridone Sepharose 6B), anti-GST immunoblot quantification; n = 3, mean ± SD; parent: 1; read off a plot

ratio to parent	Variant
~0.03	chain 2 K1A, chain 2 R2A, chain 2 R3A, chain 2 K6A, chain 2 K7A
